Results published in patent publication US20230122364A1 (VANDERBILT UNIVERSITY, published 2023).

Legend:
[1] = target: T1, SRBD subdomain of SARS-CoV-2 S protein (SARS-CoV-2, UniProt P0DTC2 319-541); assay: ELISA on coated SRBD
[2] = target: T2, SARS-CoV-2 spike (S) protein on authentic SARS-CoV-2 virus (strain WA1/2020) (SARS-CoV-2, UniProt P0DTC2 14-1273); assay: cell-based or functional assay
[3] = target: T1, SRBD subdomain of SARS-CoV-2 S protein; assay: ELISA, purified IgG
SARS-CoV-2 NTD = target: T3, SARS-CoV-2 NTD (SARS-CoV-2, UniProt P0DTC2 14-305); assay: ELISA, purified IgG
T3 construct: domain: NTD

[4] = target: T2, SARS-CoV-2 spike (S) protein on …; assay: cell-based or functional assay; remark: listed apart in the source

| Binder | EC50 [1] | Neutralization IC50 (FRNT, authentic SARS-CoV-2 WA1/2020) [2] | OD 450 nm [3] | OD 450 nm (SARS-CoV-2 NTD) | Nano-luciferase virus reduction test, SARS-CoV-2, IC50 [4] | SARS-CoV-2 focus reduction test, IC50 [4] |
| --- | --- | --- | --- | --- | --- | --- |
| COV2-2082 (antibody, V domains shown) VH: EVQLVESGGGVVRPGGSLRLSCAASGFIFDDYDMTWVRQAPGKGLEWVSGISWNGGNTGYADSVKGRFTISRDNAKNSLYLQMNSLRAEDTALYHCAVIMSPIPRYSGYDWAGGAFDIWGQGTMVTVSS VL: SSELTQDPAVSVALGQTVRITCQGDSLRSYYASWYQQKPGQVPILVIYDKNNRPSGIPDRFSGSSSGNTASLTITGAQAEDEADYYCNSRDSSGNAVVFGGGTKLTVL | 0.6 ng/mL | 204 ng/mL | 4.3 OD 450 nm | 0.11 OD 450 nm | < 200 ng/mL | 302 ng/mL |
| COV2-2050 (antibody, V domains shown) VH: QVQLVQSGAEVKKPGASVKVSCKASGYTFTDYYMHWVRQAPGQGLEWMGWINPNSRGTNYAQKFQGRVTMTRDTSISTVYMELSRLTSDDTAVYYCARVVVLGYGRPNNYYDGRNVWDYWGQGTLVTVSS VL: not shown | 1.6 ng/mL | 80 ng/mL | 4.3 OD 450 nm | 0.12 OD 450 nm | < 50 ng/mL | 25 ng/mL |
| COV2-2098 (antibody, V domains shown) VH: EVQLLESGGGLIQPGGSLRLSCAASGFTFSNYAMSWVRQAPGKGLEWVSGIISTSGGATYNADSVRGRFTTSRDNSKNILYLQMNSLRGEDTAVYYCVKGLFDWFPLWGQGTMVTVSS VL: DIVMTQSPATLSVSPGERAILSCRASQSVRSNLAWYQQKPGQAPRLLISGASTRATAIPARFSGSGSGTEFTLTITSLQSEDCAVYYCHQYNNWPQTFGQGTKVEIK | 0.7 ng/mL | 1030 ng/mL | 4.2 OD 450 nm | 0.15 OD 450 nm | < 100 ng/mL | 776 ng/mL |
| COV2-2103 (antibody, V domains shown) VH: EVQLVESGGGLVQPGGSLRLSCAASGFTFSRHWMTWVRQAPGKGLEWVANIKQDGSEKYYVDSVKGRLTISRDNAKNSLYLQMNSLRAEDTAVYYCARLGFYYGGADYWGQGTLVTVSS VL: NFMLTQPHSVSESPGKTVTISCTGSSGSIASNYVQWYQQRPGSAPTTVISEDNQRPSGVPDRFSGSIDSSSNSASLTISGLKTEDEADYYCQSYDGINRAWVFGGGTKLTVL | 1.1 ng/mL | 1970 ng/mL | 4.3 OD 450 nm | 0.12 OD 450 nm |  | > 1000 ng/mL |
| COV2-2113 (antibody, V domains shown) VH: EVQLVESGGGLIQPGGSLRLSCAASEVTVSSNYMSWVRQAPGKGLEWVSLIYSGGTTYYADSVKGRFTISRDNSKNTLYLQMNSLRAEDTAVYYCARDFLRWHDLWGQGTLVTVSS VL: DIQMTQSPSSLSASVGDRVTITCQASQDINNYLNWYQQKPGKAPKLLIYDASNLETGVPLRFSGSGSGTDFIFTISSLQPEDIATYYCQQYDNLPPVFGGGTKVEIK | 0.6 ng/mL | 1040 ng/mL | 4.4 OD 450 nm |  | < 300 ng/mL | 427 ng/mL |
| COV2-2132 (antibody, V domains shown) VH: EVQLVESGGGLIQPGGSLRLSCAASEVTVSSNYMSWVRQAPGKGLEWVSLIYSGGTTYYADSVKGRFTISRDNSKNTLYLQMNSLRAEDTAVYYCARDFLRWHDLWGQGTLVTVSS VL: DIQMTQSPSSLSASVGDRVTITCQASQDINNYLNWYQQKPGKAPKLLIYDASNLETGVPLRFSGSGSGTDFTFTISSLQPEDIATYYCQQYDNLPPVFGGGTKVEIK |  |  |  | 0.15 OD 450 nm | < 300 ng/mL | 673 ng/mL |
| COV2-2068 (antibody, V domains shown) VH: EVQLVESGGGLVQPGGSLRLSCAASGFTVSSNYMSWVRQAPGKGLEWVSVIYPGGSAFYADSVKGRFTISRHNSNNTLCLQMNSLRTEDTAVYYCARSYDILTGYRDAFDIWGQGTMVTVSS VL: QSVLTQPPSVSGAPGQRVTISCTGSSSNIGSGSDVHWYQQLPGTAPKLLIYGNTNRPSGVPDRFSGSKSGTSASLAITGLQAEDEADYYCQSYDSRLSGFVVFGGGTKLTVL | 1.2 ng/mL | 478 ng/mL | 4.3 OD 450 nm | 0.1 OD 450 nm | < 300 ng/mL | 864 ng/mL |
| COV2-2961 (antibody, V domains shown) VH: EVQLVQSGPEVKKPGTSVKVSCKASGFTFMSSAVQWVRQARGQRLEWIGWIVIGSGNTNYAQKFQERVTITRDMSTSTAYMELSSLRSEDTAVYYCAAPYCSSISCNDGFDIWGQGTMVTVSS VL: not shown |  |  |  |  |  | 30 ng/mL |
| COV2-2046 (antibody, V domains shown) VH: EVQLVESGGGLVQPGRSLRLSCAASGFTFDDYAMHWVRQAPGKGLEWVSGISWNSGSIAYTDSVKGRFTISRDNAKNSLYLQMNSLRAEDTALYYCAKAHSTGHQYYYGMDVWGQGTTVTVSS VL: DIQMTQSPSSLSASVGDRVTITCRASQSISSFLNWYQQKPGKAPKLLIYAAFNLQSGVPSRFSGSGSGTDFTLTISSLQSEDFATYYCQQSYNTPYTFGQGTKLEIK |  |  |  | 0.09 OD 450 nm | < 100 ng/mL | 171 ng/mL |
